Results taken from patent US20220242944A1.

Target: recombinant human PDGF-B (human) (UniProt P01127)
Test: SPR (Biacore T200), antibody captured by anti-human Fc, antigen as analyte, 25 degrees C, pH 7.4, 1:1 model

UniProt P01127, sequence (P01127 82-190 limits assumed): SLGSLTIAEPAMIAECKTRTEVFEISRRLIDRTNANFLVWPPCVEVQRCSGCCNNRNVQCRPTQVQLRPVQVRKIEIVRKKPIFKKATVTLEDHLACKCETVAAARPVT

Binder | Kd
CPR001-GL-F1332m (antibody, V domains shown) VH: EVQLLESGGGLVQPGGSLRLSCAASGFTFSSYAMSWVRQAPGKGLEWVSYISDDGSLKYYADSVKGRFTISRDNSKNTLYLQMNSLRAEDTAVYYCAKHPYWYGGQLDLWGQGTLVTVSS VL: SYELTQPPSVSVSPGQTASITCSGDSLGSYFVHWYQQKPGQSPVLVIYDDSNRPSGIPERFSGSNSGNTATLTISGTQAMDEADYYCSAFTHNSDVFGGGTKLTVL | 20.2 pM
CPR001GLVH/xIC17-SG181v14hk (bispecific antibody, part only; not given: IC17 control arm and constant region, V domains shown, part only) VH: EVQLLESGGGLVQPGGSLRLSCAASGFTFSSYAMSWVRQAPGKGLEWVSYISDDGSLKYYADSVKGRFTISRDNSKNTLYLQMNSLRAEDTAVYYCAKHPYWYGGQLDLWGQGTLVTVSS VL: SYELTQPPSVSVSPGQTASITCSGDSLGSYFVHWYQQKPGQSPVLVIYDDSNRPSGIPERFSGSNSGNTATLTISGTQAMDEADYYCSAFTHNSDVFGGGTKLTVL | 16.5 pM
